One assay relates to HMVEC. Briefly: VEGF induced migration of HMVECs (modified Boyden chamber). Type of assay: cell-based, human.
Assay [1] has as its system neovascular tuft formation. The assay can be described thus: Oxygen-induced retinopathy, SecinH3. Type of assay: in vivo. The following applies: wild-type mice, intraocular injection, final concentration 21.6 μM, versus DMSO.
The subject of assay [2] is neovascular tuft formation. The assay can be described thus: Laser-induced choroidal neovascularization, SecinH3. The class given is in vivo. The following applies: wild-type mice, intravitreal injection, final concentration 21.6 μM, versus DMSO.
Assay [3] relates to ARF6. The assay can be described thus: VEGF induced ARF6-GTP, HMVEC, SecinH3. Type of assay: cell-based, human.
In assay [4] the test system is endothelial cell migration. Briefly: VEGF-induced endothelial cell migration by Slit constructs (FIG. 23). Type of assay: cell-based. The following applies: Slit constructs 2 nM, compared with full length Slit2; listed as Slit2-D1.
Another assay relates to VEGFR2. The assay can be described thus: VEGF-A-induced VEGFR2 phosphorylation, HMVEC. The class given is cell-based, human. The following applies: 5 minutes.
Assay [5] deals with lung endothelial cells. Briefly: VEGF-A tube formation assay, murine lung endothelial cells. Type of assay: cell-based, mice.
In assay [6] the test system is Rac. Briefly: VEGF-induced Rac activation in HUVEC. The class given is cell-based, human. The following applies: GST-PBD pull down.
Assay [7] has as its system pathological angiogenesis. The assay can be described thus: Oxygen-induced retinopathy (OIR), Slit2N. Type of assay: in vivo. The following applies: Robo4^+/+ mice, intravitreal administration.
A further assay relates to endothelial cells. The assay can be described thus: Spreading assay, endothelial cells. The class given is cell-based, human.
The test system of a further assay is c-Src. Briefly: VEGF-A-stimulated c-Src phosphorylation, HMVEC. The class given is cell-based, human. The following applies: endothelial cells (HMVEC).
Assay [8] deals with murine lung endothelial cells. The assay can be described thus: bFGF-induced tube formation on matrigel. The class given is cell-based.
The subject of a further assay is retinal endothelium. The assay can be described thus: VEGF induced retinal permeability (Evans Blue), Slit2. Type of assay: in vivo, mice. The following applies: intravitreal co-injection.
The subject of assay [9] is ARF6. Briefly: ARF6 activation assay (GST-GGA3), endothelial cells on VEGF-165. The class given is cell-based. The following applies: endothelial cells on dishes coated with VEGF-165 and Slit2.
Assay [10] deals with lung endothelial cells. Briefly: In vitro permeability assay (Transwell, HRP). The class given is cell-based, mice. The following applies: Robo4^+/+ endothelial cell monolayers, pre-treatment with Slit2.
In another assay the test system is Cdc42. Briefly: Cdc42-GTP levels, endothelial cells on fibronectin. The class given is cell-based. The following applies: presence of Slit2.
The test system of the next assay is Rac1. The assay can be described thus: VEGF-A-dependent Rac1 activation, HMVEC. The following applies: endothelial cell monolayers (HMVEC). The class given is cell-based, human.
Assay [11] deals with lung endothelial cells. Briefly: VEGF-A endothelial cell migration assay, murine lung endothelial cells. The class given is cell-based, mice.
The test system of assay [12] is neovascularization of the retina. Briefly: Retinopathy of prematurity: percent neovascularization of the retina (FIG. 12). The class given is in vivo. The following applies: wildtype mice, Slit versus Mock preparation, N=6, P<0.003.
The subject of assay [13] is choroidal neovascularization. The assay can be described thus: Laser-induced choroidal neovascularization (CNV), Slit2N. The following applies: Robo4^+/+ mice, intravitreal administration. Type of assay: in vivo.
The test system of assay [14] is ARF6. The assay can be described thus: ARF6 activation assay (GST-GGA3), endothelial cells on fibronectin. The following applies: endothelial cells on fibronectin and Slit2. The class given is cell-based.
A further assay concerns Rho. Briefly: Rho-GTP levels, endothelial cells on fibronectin. Type of assay: cell-based. The following applies: presence of Slit2.
For another assay, the system named is LPS. Briefly: Acute lung injury, intratracheal LPS, bronchoalveolar lavage. The class given is in vivo, mice. The following applies: versus Mock preparation.
Assay [15] has as its system Avian Flu Virus, strain H5N1/Duck/Mn/1525/81. More on the design: species or system BALB/c mice. The following applies: mouse, in vivo.
In assay [16] the test system is human microvascular endothelial cells. The assay can be described thus: Haptotaxis migration assay, human microvascular endothelial cells. The class given is cell-based. The following applies: transwells coated with fibronectin and Slit2.
The test system of assay [17] is Rac. The assay can be described thus: Rac-GTP levels, endothelial cells on fibronectin. The class given is cell-based. The following applies: endothelial cells on fibronectin and Slit2.
The subject of a further assay is dermal permeability. The assay can be described thus: Miles assay / VEGF-induced dermal permeability. The class given is in vivo. The following applies: Robo4^+/+ mice, concomitant intradermal Slit2.
[18] abbreviates: endothelial cells pre-treated with inhibitor or vehicle (Example 28).

Where “and” joins values, the source holds several entries; their conditions need not be identical. Identical values can stand only once. Entries after “also recorded” stand apart in the source; their conditions may differ.

As to `COc1nc(-c2ccc3c(c2)OCO3)n(-c2ccc(NC(=O)CSc3ccccc3)cc2)n1` [SecinH3], the “VEGF-165 induced cell migration response” value in the assay with HMVEC (HMVEC, 15 ng/ml VEGF-165, 15 μM Secin-H3, 3 h) is given as “attenuated; also recorded: inhibits”. Also, the VEGF-induced cell migration entry with HMVEC (setting [18]) was “prevented”. The “neovascular tuft formation in OIR” value in [1] is given as “inhibited”. Further, the “neovascular tuft formation in CNV” value in assay [2] was “inhibited”. Further, the “accumulation of ARF6-GTP” value in the assay on ARF6 [3] (HMVEC, 20 ng/ml VEGF, 50 μM Secin-H3) is on record as “blocks; also recorded: inhibits”. The “VEGF-induced Arf6 activation” value in the assay with ARF6 [3] (setting [18]) was “prevented”.

B1: SlitD1 (protein)
chain: ILNKVAPQACPAQCSCSGSTVDCHGLALRSVPRNIPRNTERLDLNGNNITRITKTDFAGLRHLRVLQLMENKISTIERGAFQDLKELERLRLNRNHLQLFPELLFLGTAKLYRLDLSENQIQAIPRKAFRGAVDIKNLQLDYNQISCIEDGAFRALRDLEVLTLNNNNITRLSVASFNHMPKLRTFRLHSNNLYCDCHLAWLSDWLRQRPRVGLYTQCMGPSHLRGHNVAEVQKREFVCSGHQS
Take B1: in [4], the “Inhibition of VEGF mediated endothelial cell migration” value was “active”.

B2: Slit2N (protein)
chain: QACPAQCSCSGSTVDCHGLALRSVPRNIPRNTERLDLNGNNITRITKTDFAGLRHLRVLQLMENKISTIERGAFQDLKELERLRLNRNHLQLFPELLFLGTAKLYRLDLSENQIQAIPRKAFRGAVDIKNLQLDYNQISCIEDGAFRALRDLEVLTLNNNNITRLSVASFNHMPKLRTFRLHSNNLYCDCHLAWLSDWLRQRPRVGLYTQCMGPSHLRGHNVAEVQKREFVCSGHQSFMAPSCSVLHCPAACTCSNNIVDCRGKGLTEIPTNLPETITEIRLEQNTIKVIPPGAFSPYKKLRRIDLSNNQISELAPDAFQGLRSLNSLVLYGNKITELPKSLFEGLFSLQLLLLNANKINCLRVDAFQDLHNLNLLSLYDNKLQTIAKGTFSPLRAIQTMHLAQNPFICDCHLKWLADYLHTNPIETSGARCTSPRRLANKRIGQIKSKKFRCSAKEQYFIPGTEDYRSKLSGDCFADLACPEKCRCEGTTVDCSNQKLNKIPEHIPQYTAELRLNNNEFTVLEATGIFKKLPQLRKINFSNNKITDIEEGAFEGASGVNEILLTSNRLENVQHKMFKGLESLKTLMLRSNRITCVGNDSFIGLSSVRLLSLYDNQITTVAPGAFDTLHSLSTLNLLANPFNCNCYLAWLGEWLRKKRIVTGNPRCQKPYFLKEIPIQDVAIQDFTCDDGNDDNSCSPLSRCPTECTCLDTVVRCSNKGLKVLPKGIPRDVTELYLDGNQFTLVPKELSNYKHLTLIDLSNNRISTLSNQSFSNMTQLLTLILSYNRLRCIPPRTFDGLKSLRLLSLHGNDISVVPEGAFNDLSALSHLAIGANPLYCDCNMQWLSDWVKSEYKEPGIARCAGPGEMADKLLLTTPSKKFTCQGPVDVNILAKCNPCLSNPCKNDGTCNSDPVDFYRCTCPYGFKGQDCDVPIHACISNPCKHGGTCHLKEGEEDGFWCICADGFEGENCEVNVDDCEDNDCENNSTCVDGINNYTCLCPPEYTGELCEEKLDFCAQDLNPCQHDSKCILTPKGFKCDCTPGYVGEHCDIDFDDCQDNKCKNGAHCTDAVNGYTCICPEGYSGLFCEFSPP
On to B2, for which the “VEGF-A-induced VEGFR2 phosphorylation” value in the assay on VEGFR2 is given as “no effect”. The VEGF-A-dependent tube formation result in the assay on lung endothelial cells [5] (Robo4^+/+ endothelial cells) is listed as “inhibited”. Also, the “VEGF-A-dependent tube formation, inhibitory activity” value with lung endothelial cells [5] (Robo4^AP/AP endothelial cells) is on record as “lost”. The “VEGF-stimulated Rac activation” value in the assay on Rac [6] is listed as “completely suppressed”. Also, in assay [7], the “angiogenesis in oxygen-induced retinopathy” value is recorded as “markedly reduced”. In the assay on endothelial cells, the “cell spreading on fibronectin” value is recorded as “markedly inhibited”. In the assay on endothelial cells (endothelial cells on 9-11 fragment of fibronectin and Slit2), the “cellular protrusive activity stimulated by integrin ligation (spreading)” value is “suppressed”. Besides, in the assay with c-Src, the “VEGF-A-stimulated phosphorylation of c-Src” value is given as “reduced”. Moreover, in assay [8], the “bFGF-induced endothelial tube formation” value is reported as “blocked”. Besides, in the assay on retinal endothelium (Robo4^+/+ mice), the “VEGF-A induced leak of Evans Blue from the retinal blood vessels” value was “suppressed”. Moreover, the “VEGF-A induced leak of Evans Blue from the retinal blood vessels” value in the assay on retinal endothelium (Robo4^AP/AP mice) is given as “refractory”. In addition, in the assay with ARF6 [9], the “VEGF-165-induced ARF6 activation” value is listed as “prevented”. In addition, in the assay on lung endothelial cells [10], the “VEGF-A-enhanced accumulation of HRP in the lower chamber” value is listed as “prevented”. In addition, the Cdc42 activation entry with Cdc42 is given as “significantly reduced”. In addition, in the assay with Rac1, the “VEGF-A-dependent Rac1 activation” value is listed as “prevented”. Besides, the “VEGF-A-dependent endothelial cell migration” value in the assay with lung endothelial cells [11] (Robo4^+/+ endothelial cells) was “inhibited”. The “VEGF-A-dependent endothelial cell migration, inhibitory activity” value in the assay with lung endothelial cells [11] (Robo4^AP/AP endothelial cells) is on record as “lost”. Besides, the reduction in neovascularization in [12] came to 63%. The “angiogenesis in laser-induced choroidal neovascularization” value in assay [13] is “reduced”. For the same molecule, the “fibronectin-induced increase in ARF6-GTP” value in the assay with ARF6 [14] is given as “efficiently blocked”. For the same molecule, in the assay on Rho, the Rho activation result is “unaltered”. For the same molecule, in the assay on LPS, the “concentration of inflammatory cells in bronchoalveolar lavages (BAL)” value is on record as “significantly lower” and the “concentration of protein in bronchoalveolar lavages (BAL)” value is on record as “significantly lower”. In the assay with LPS (listed as Slit protein), the “concentration of inflammatory cells in bronchoalveolar lavages (BAL)” value is “significantly reduced” and the “concentration of protein in bronchoalveolar lavages (BAL)” value is on record as “significantly reduced”. Besides, in [15], the mortality result is listed as “lower mortality”; the survivability rate is 25% and 50%. Moreover, the “Av. Wt.” value in assay [15] (iv) is 17.4 grams and 18.5 grams and 16.0 grams and 15.4 grams. In addition, the “fibronectin-driven cell migration (haptotaxis)” value in assay [16] is on record as “blocked”. The “fibronectin-induced increase in Rac-GTP” value in the assay with Rac [17] is reported as “efficiently blocked”. The “VEGF-A-stimulated leak of Evans Blue into the dermis” value with dermal permeability is “prevented”.
